“Also recorded” adds a separate entry of the source.
Key:
Type in all cases: physicochemical
[1] = Fibrillation (thioflavin T), shaking at 37 °C; details: 60 μM in 100 mM sodium phosphate, pH 8.0, 37 °C; for Fibrillation lag time: shaking 960 rpm, 1 μM ThT (444/485 nm), lag time = x-intercept, two HPLC fractions, each in triplicate or quadruplicate, two days; for fibrillation: vigorous shaking, ThT
Experimental: Each insulin lispro variant was subjected to continuous, vigorous shaking at 37 °C to assess its stability against physical denaturation; fibrillation was monitored with the dye thioflavin T, (Fig. 4A).
(§1) Figure 4 Fibrillation of lispro variants.A, lispro variants (60 μM in 100 mM phosphate buffer, pH 8.0) were incubated at 37 °C with vigorous shaking; fibril formation was monitored by ThT fluorescence. Fibrillation runs were performed on two separate HPLC fractions, each in triplicate or quadruplicate, on two separate days. B–E, TEM images of lispro (B), KP-4R-F (C), KP-4S-F (D), and KP-44-diF (E) aggregates. F, ANS emission spectra of lispro variants (1 μM lispro variant labeled with 5 μM ANS in 100 mM phosphate buffer, pH 8.0). The data presented here indicate the mean ± SD for each variant from measurements of three separate HPLC fractions. 44-diF, 4,4-difluoroproline; 4R-F, 4R-fluoroproline; 4S-F, 4S-fluoroproline; ThT, thioflavin T.
Lispro samples (60 μM in 100 mM sodium phosphate buffer, pH 8.0) were centrifuged (22,000g, 1 h, 4 °C); 1 μM thioflavin T was then added. Each lispro variant was shaken continuously in a 96-well, black, clear bottom plate at 37 °C, and fluorescence (444 nm excitation, 485 nm emission) was monitored over time. Fibrillation runs were performed on two separate HPLC fractions, each in triplicate or quadruplicate, on two separate days. The growth phase of each replicate was fit to a linear function; lag times were reported as the x-intercept. […]
Lispro samples (60 µM in 100 mM sodium phosphate, pH 8.0) were centrifuged at 22,000 g for 1 h at 4°C, before 1 µM thioflavin T (ThT) was added. Each lispro (200 µL) was added to a 96 -well, black, clear bottom plate (Greiner Bio -One) and sealed. Samples were shaken continuously at 960 rpm on a Varioskan multimode plate reader at 37°C, and fluorescence readings were recorded every 15 min (444 nm excitation, 485 nm em ission). Fibrillation runs were performed on at least two separate HPLC fractions, each in triplicate or quadruplicate, and on two different days. The growth phase of each fibrillation replicate was fit to a linear function; f ibrillation lag times were reported as the x-intercept of this fit. Fibril samples were stored at 4°C until analysis by transmission electron microscopy (TEM).
(§2) Transmission electron microscopy: […]

[2] = Far-UV circular dichroism (secondary structure); details: for Ellipticity ratio (208/222 nm): 60 µM insulin or lispro variant, 100 mM phosphate, pH 8.0
Experimental: Figure 2 Biological activity and CD spectroscopy of lispro variants.A, lispros were injected subcutaneously into diabetic mice, and blood glucose was measured over time after injection. The data presented here represent the mean ± SD of 3 to 6 biological replicates. B–E, far-UV circular dichroism spectra (60 μM lispro in […] phosphate buffer, pH 8.0). […] 4R-F, 4R-fluoroproline; 4S-F, 4S-fluoroproline.
The secondary structure of each insulin lispro variant was probed by circular dichroism spectroscopy. […] All lispro samples were further analyzed by analytical ultracentrifugation (Fig. S3). To determine the dissociation constant of each variant, we fit the data to a reversible monomer-dimer equilibrium ([29]). […]
Circular dichroism spectroscopy:
Equilibrium measurements: The circular dichroism spectra of insulin or lispro samples (60 µM in
100 mM sodium phosphate, pH 8.0) were measured at 25°C in 1 mm quartz cuvettes using a step
size of 0.5 nm and averaging time of 1 s on an Aviv Model 430 Circular Dichroism
Spectrophotom eter. A reference buffer spectrum was subtracted from each sample spectrum. […]
Analytical ultracentrifugation: […]

[3] = ANS fluorescence (conformational disorder); details: 1 μM lispro variant, 5 μM ANS, 100 mM phosphate, pH 8.0, ambient temperature, 350 nm excitation; mean ± SD, three separate HPLC fractions
Experimental: as §1, with “T. […]” for “T.”
Lispro variants (1 μM) were mixed with 5 μM ANS in 100 mM phosphate buffer, pH 8.0. Fluorescence emission spectra were measured at ambient temperature (350 nm excitation). Measurements for each lispro were performed in triplicate from three separate HPLC fractions. […]
as §2
Lispro variants (1 µM) were mixed with 5 µM ANS in 100 mM phosphate buffer, pH 8.0.
Fluorescence emission spectra were measured in 1 cm quartz cuvettes at ambient temperature using a PTI QuantaMaster fluorescence spectrofluorometer. A 2 nm s -1 scan rate and 350 nm excitation wavelength were used. Measurements for each variant were performed in triplicate from three separate HPLC fractions.

Row | Substance | Fibrillation lag time [1] [h] | fibrillation [1] | Ellipticity ratio (208/222 nm) ([2]; 25 °C) | ANS emission maximum [3] [nm] | oligomeric state at 60 μM ([2]; 60 μM, statement in discussion of CD spectra) | CD spectrum ([2]; far-UV CD, 60 μM lispro in 10 mM phosphate buffer, pH 8.0 (Fig. 2; SI: 100 mM sodium phosphate), 25 °C)
1 | KP-44-diF: insulin lispro with ProB29 replaced by 4,4-difluoroproline | 9.0 ± 1.3 | did not significantly change the fibrillation lag time | 1.61 ± 0.05 | 462 ± 5 | – | –
2 | insulin lispro: fast-acting insulin with inversion of the residues ProB28 and LysB29; Humalog, Eli Lilly [reference compound] | 10.9 ± 2.2 | – | 1.63 ± 0.07 | 466 ± 2 | monomeric | increased negative ellipticity at 208 nm and decreased negative ellipticity at 222 nm
3 | KP-4S-F: insulin lispro with ProB29 replaced by 4S-fluoroproline | 17.9 ± 0.8 | stabilized against fibril formation; also recorded: extended lag time to fibril formation | 1.59 ± 0.06 | 463 ± 6 | – | –
4 | KP-4R-F: insulin lispro with ProB29 replaced by 4R-fluoroproline | 10.3 ± 2.4 | did not significantly change the fibrillation lag time | 1.62 ± 0.06 | 464 ± 4 | – | –
